Results: IntAct's records for PubMed 29892012

B1: Abl interactor 2 (Homo sapiens), Q9NYB9 (parent)
chain: MAELQMLLEEEIPGGRRALFDSYTNLERVADYCENNYIQSADKQRALEETKAYTTQSLASVAYLINTLANNVLQMLDIQASQLRRMESSINHISQTVDIHKEKVARREIGILTTNKNTSRTHKIIAPANLERPVRYIRKPIDYTILDDIGHGVKWLLRFKVSTQNMKMGGLPRTTPPTQKPPSPPMSGKGTLGRHSPYRTLEPVRPPVVPNDYVPSPTRNMAPSQQSPVRTASVNQRNRTYSSSGSSGGSHPSSRSSSRENSGSGSVGVPIAVPTPSPPSVFPAPAGSAGTPPLPATSASAPAPLVPATVPSSTAPNAAAGGAPNLADGFTSPTPPVVSSTPPTGHPVQFYSMNRPASRHTPPTIGGSLPYRRPPSITSQTSLQNQMNGGPFYSQNPVSDTPPPPPPVEEPVFDESPPPPPPPEDYEEEEAAVVEYSDPYAEEDPPWAPRSYLEKVVAIYDYTKDKEDELSFQEGAIIYVIKKNDDGWYEGVMNGVTGLFPGNYVESIMHYSE
partner: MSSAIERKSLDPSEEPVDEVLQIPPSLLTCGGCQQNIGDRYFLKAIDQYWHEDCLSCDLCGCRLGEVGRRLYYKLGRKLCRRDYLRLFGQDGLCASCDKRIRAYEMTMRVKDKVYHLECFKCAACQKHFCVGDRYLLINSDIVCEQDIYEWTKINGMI
B2: Abl interactor 2 (Homo sapiens), Q9NYB9 (parent)
chain: B1 chain
partner: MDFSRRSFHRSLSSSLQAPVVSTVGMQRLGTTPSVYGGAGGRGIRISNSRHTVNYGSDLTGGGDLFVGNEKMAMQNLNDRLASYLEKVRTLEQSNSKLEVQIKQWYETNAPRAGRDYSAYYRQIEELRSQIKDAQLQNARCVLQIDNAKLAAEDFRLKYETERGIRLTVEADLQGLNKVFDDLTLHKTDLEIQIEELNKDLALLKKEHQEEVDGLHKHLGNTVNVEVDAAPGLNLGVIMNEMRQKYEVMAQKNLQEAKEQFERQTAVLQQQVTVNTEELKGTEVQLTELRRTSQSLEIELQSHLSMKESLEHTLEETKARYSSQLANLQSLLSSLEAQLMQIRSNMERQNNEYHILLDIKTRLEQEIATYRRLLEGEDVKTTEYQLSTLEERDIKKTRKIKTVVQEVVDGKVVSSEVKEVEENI
B3: Abl interactor 2 (Homo sapiens), Q9NYB9 (parent)
chain: B1 chain
partner: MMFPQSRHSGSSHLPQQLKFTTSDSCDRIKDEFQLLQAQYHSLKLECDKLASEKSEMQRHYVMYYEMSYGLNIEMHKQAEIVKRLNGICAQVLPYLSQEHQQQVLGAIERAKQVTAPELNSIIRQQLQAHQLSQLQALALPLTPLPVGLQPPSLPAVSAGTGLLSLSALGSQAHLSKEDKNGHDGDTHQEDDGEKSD
B4: Abl interactor 2 (Homo sapiens), Q9NYB9 (parent)
chain: B1 chain
partner: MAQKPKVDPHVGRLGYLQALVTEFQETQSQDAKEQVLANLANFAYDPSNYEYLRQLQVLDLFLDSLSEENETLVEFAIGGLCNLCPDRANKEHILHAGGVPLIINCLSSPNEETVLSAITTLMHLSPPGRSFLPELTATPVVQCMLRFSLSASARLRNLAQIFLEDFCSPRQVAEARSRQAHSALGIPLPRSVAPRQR
B5: Abl interactor 2 (Homo sapiens), Q9NYB9 (parent)
chain: B1 chain
partner: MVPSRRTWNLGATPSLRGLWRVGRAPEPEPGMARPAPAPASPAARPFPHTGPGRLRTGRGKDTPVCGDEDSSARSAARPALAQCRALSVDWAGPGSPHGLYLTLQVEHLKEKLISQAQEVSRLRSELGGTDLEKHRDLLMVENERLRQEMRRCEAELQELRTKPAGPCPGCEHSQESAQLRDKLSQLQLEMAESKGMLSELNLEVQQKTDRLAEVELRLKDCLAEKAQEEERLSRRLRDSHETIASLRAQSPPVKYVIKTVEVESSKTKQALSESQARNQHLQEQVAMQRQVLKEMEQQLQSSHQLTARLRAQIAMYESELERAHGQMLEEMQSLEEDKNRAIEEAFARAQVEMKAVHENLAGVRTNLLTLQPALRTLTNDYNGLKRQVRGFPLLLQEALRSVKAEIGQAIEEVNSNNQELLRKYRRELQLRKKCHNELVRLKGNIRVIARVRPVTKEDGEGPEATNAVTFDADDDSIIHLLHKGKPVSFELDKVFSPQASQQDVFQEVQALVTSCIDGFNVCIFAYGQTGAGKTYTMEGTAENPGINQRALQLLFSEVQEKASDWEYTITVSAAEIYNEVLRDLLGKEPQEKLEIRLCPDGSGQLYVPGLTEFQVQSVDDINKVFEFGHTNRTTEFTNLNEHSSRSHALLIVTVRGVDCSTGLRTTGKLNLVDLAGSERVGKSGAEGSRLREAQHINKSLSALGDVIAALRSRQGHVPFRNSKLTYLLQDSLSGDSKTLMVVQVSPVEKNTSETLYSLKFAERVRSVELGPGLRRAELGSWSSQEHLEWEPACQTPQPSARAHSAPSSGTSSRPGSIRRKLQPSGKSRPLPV
B6: Abl interactor 2 (Homo sapiens), Q9NYB9 (parent)
chain: B1 chain
partner: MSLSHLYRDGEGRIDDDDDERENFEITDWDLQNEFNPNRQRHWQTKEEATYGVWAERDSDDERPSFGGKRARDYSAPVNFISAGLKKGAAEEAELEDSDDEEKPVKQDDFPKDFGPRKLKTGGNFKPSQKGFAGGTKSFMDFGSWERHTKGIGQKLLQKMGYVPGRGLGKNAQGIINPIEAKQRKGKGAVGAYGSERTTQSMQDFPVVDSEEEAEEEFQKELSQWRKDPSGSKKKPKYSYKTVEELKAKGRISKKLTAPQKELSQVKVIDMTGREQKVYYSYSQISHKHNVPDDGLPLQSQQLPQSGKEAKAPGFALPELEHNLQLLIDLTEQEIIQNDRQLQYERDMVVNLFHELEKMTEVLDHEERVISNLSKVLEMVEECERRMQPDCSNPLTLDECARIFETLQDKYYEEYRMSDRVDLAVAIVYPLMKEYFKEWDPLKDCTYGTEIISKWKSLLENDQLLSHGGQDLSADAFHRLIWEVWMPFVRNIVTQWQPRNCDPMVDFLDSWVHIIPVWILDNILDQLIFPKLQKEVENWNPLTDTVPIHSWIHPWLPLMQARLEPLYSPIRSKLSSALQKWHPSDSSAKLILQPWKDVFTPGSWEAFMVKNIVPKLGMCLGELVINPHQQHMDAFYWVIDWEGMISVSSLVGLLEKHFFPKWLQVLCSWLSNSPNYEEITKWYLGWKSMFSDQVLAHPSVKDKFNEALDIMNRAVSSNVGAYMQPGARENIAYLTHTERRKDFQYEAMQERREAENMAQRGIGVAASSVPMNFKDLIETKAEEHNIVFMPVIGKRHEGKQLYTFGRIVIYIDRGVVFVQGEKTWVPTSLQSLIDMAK
B7: Angio-associated migratory cell protein (Homo sapiens), Q13685 (parent)
chain: MESESESGAAADTPPLETLSFHGDEEIIEVVELDPGPPDPDDLAQEMEDVDFEEEEEEEGNEEGWVLEPQEGVVGSMEGPDDSEVTFALHSASVFCVSLDPKTNTLAVTGGEDDKAFVWRLSDGELLFECAGHKDSVTCAGFSHDSTLVATGDMSGLLKVWQVDTKEEVWSFEAGDLEWMEWHPRAPVLLAGTADGNTWMWKVPNGDCKTFQGPNCPATCGRVLPDGKRAVVGYEDGTIRIWDLKQGSPIHVLKGTEGHQGPLTCVAANQDGSLILTGSVDCQAKLVSATTGKVVGVFRPETVASQPSLGEGEESESNSVESLGFCSVMPLAAVGYLDGTLAIYDLATQTLRHQCQHQSGIVQLLWEAGTAVVYTCSLDGIVRLWDARTGRLLTDYRGHTAEILDFALSKDASLVVTTSGDHKAKVFCVQRPDR
partner: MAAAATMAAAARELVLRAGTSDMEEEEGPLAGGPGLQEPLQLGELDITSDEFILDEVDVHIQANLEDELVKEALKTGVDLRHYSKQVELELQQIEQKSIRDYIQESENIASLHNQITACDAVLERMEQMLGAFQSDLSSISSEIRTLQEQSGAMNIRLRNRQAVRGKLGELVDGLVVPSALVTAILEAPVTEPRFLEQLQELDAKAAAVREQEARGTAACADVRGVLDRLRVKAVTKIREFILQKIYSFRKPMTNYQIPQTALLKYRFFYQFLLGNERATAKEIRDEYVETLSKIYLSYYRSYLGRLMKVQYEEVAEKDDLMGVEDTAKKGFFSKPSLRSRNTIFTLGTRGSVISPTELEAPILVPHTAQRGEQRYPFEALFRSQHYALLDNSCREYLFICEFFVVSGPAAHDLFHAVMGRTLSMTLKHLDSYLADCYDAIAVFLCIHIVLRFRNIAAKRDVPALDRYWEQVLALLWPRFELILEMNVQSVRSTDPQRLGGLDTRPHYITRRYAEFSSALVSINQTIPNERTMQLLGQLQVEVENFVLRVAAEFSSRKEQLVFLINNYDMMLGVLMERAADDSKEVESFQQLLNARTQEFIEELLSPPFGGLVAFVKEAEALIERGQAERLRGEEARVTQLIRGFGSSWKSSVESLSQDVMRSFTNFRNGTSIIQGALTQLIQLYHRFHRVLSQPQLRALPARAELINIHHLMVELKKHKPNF
B8: Angio-associated migratory cell protein (Homo sapiens), Q13685 (parent)
chain: B7 chain

Variants of: B1
Conditions: with rbtn2_human LMO2, P25791

| Variant | effect of a mutation on the interaction |
| --- | --- |
| E202K | with no effect |

Variants of: B1
Conditions: with rbtn2_human LMO2, P25791
Remark: another data set of the same source

| Variant | effect of a mutation on the interaction |
| --- | --- |
| R373C | with no effect |

Variants of: B2
Conditions: with KRT20, P35900

| Variant | effect of a mutation on the interaction |
| --- | --- |
| E202K | with no effect |

Variants of: B2
Conditions: with KRT20, P35900
Remark: another data set of the same source

| Variant | effect of a mutation on the interaction |
| --- | --- |
| R373C | with no effect |

Variants of: B3
Conditions: with tle5_human TLE5, Q08117

| Variant | effect of a mutation on the interaction |
| --- | --- |
| E202K | with no effect |

Variants of: B3
Conditions: with tle5_human TLE5, Q08117
Remark: another data set of the same source

| Variant | effect of a mutation on the interaction |
| --- | --- |
| R373C | with no effect |

Variants of: B4
Conditions: with armc7_human ARMC7, Q9H6L4

| Variant | effect of a mutation on the interaction |
| --- | --- |
| E202K | with no effect |

Variants of: B5
Conditions: with kifc3_human KIFC3, Q9BVG8

| Variant | effect of a mutation on the interaction |
| --- | --- |
| E202K | with no effect |

Variants of: B5
Conditions: with kifc3_human KIFC3, Q9BVG8
Remark: another data set of the same source

| Variant | effect of a mutation on the interaction |
| --- | --- |
| R373C | disrupting interaction strength |

Variants of: B6
Conditions: with tfp11_human TFIP11, Q9UBB9

| Variant | effect of a mutation on the interaction |
| --- | --- |
| E202K | with no effect |

Variants of: B6
Conditions: with tfp11_human TFIP11, Q9UBB9
Remark: another data set of the same source

| Variant | effect of a mutation on the interaction |
| --- | --- |
| R373C | with no effect |

Variants of: B7
Conditions: with vps52_human VPS52, Q8N1B4

| Variant | effect of a mutation on the interaction |
| --- | --- |
| MESESESGAAADTPPLETLSFHGDEEIIEVVELDPGPPDPDDLAQEMEDVDFEEEEEEEGNEEGWVLEPQEGVVGSMEGPDDSEVTFALHSASVFCVSLDPKTNTLAVTGGEDDKAFVWRLSDGELLFECAGHKDSVTCAGFSHDSTLVATGDMSGLLKVWQVDTKEEVWSFEAGDLEWMEWHPRAPVLLAGTADGNTWMWKVPNGDCKTFQGPNCPATCGRVLPDGKRAVVGYEDGTIRIWDLKQGSPIHVLKGTEGHQGPLTCVAANQDGSLILTGSVDCQAKLVSATTGKVVGVFRPETVASQPSLGEGEESESNSVESLGFCSVMPLAAVGYLDGTLAFYDLATQTLRHQCQHQSGIVQLLWEAGTAVVYTCSLDGIVRLWDARTGRLLTDYRGHTAEILDFALSKDASLVVTTSGDHKAKVFCVQRPDR [I343F] | with no effect |

Variants of: B8
Conditions: with bhe40_human BHLHE40, O14503
Sequence of bhe40_human BHLHE40, O14503 (O14503 whole entry): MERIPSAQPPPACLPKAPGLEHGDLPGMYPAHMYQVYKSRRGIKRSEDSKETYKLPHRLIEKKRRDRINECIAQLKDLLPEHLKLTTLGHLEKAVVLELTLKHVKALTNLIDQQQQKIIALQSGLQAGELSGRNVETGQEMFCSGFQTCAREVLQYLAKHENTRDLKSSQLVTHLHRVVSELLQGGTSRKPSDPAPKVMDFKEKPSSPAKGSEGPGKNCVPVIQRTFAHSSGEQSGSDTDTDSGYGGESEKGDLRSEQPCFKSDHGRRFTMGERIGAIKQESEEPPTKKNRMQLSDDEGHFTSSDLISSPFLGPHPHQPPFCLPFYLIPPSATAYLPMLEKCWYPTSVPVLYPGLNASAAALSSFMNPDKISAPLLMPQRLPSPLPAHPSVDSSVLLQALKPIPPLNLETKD

| Variant | effect of a mutation on the interaction |
| --- | --- |
| MESESESGAAADTPPLETLSFHGDEEIIEVVELDPGPPDPDDLAQEMEDVDFEEEEEEEGNEEGWVLEPQEGVVGSMEGPDDSEVTFALHSASVFCVSLDPKTNTLAVTGGEDDKAFVWRLSDGELLFECAGHKDSVTCAGFSHDSTLVATGDMSGLLKVWQVDTKEEVWSFEAGDLEWMEWHPRAPVLLAGTADGNTWMWKVPNGDCKTFQGPNCPATCGRVLPDGKRAVVGYEDGTIRIWDLKQGSPIHVLKGTEGHQGPLTCVAANQDGSLILTGSVDCQAKLVSATTGKVVGVFRPETVASQPSLGEGEESESNSVESLGFCSVMPLAAVGYLDGTLAFYDLATQTLRHQCQHQSGIVQLLWEAGTAVVYTCSLDGIVRLWDARTGRLLTDYRGHTAEILDFALSKDASLVVTTSGDHKAKVFCVQRPDR [I343F] | with no effect |
